Some results are limits rather than exact numbers.

From patent US20200123515, “TGFBetaR2 ENDONUCLEASE VARIANTS, COMPOSITIONS, AND METHODS OF USE” (bluebird bio, Inc., published 2020) come the findings set out here.

For data set [1], the target named is T1, TGFβR2.B3.F8 I-OnuI HE variant (HEK 293T expression) (Artificial Sequence (parent Ophiostoma …)).
T1 chain: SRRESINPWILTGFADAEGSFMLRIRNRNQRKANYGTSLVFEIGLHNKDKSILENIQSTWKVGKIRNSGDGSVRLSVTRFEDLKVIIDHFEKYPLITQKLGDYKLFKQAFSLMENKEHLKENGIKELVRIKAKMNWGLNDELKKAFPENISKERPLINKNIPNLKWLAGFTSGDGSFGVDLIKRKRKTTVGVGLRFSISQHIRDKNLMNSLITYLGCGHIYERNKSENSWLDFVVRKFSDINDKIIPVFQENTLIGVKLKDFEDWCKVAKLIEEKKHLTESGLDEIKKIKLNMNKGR
The data set is described as follows: cell_activity; rate of generating iRFP-positive cells; chromosomal reporter in HEK 293T. As for the experimental part: The activity of reprogrammed I-OnuI HEs that target exon 6 of the TGFβR2 gene was measured using a chromosomally integrated fluorescent reporter system (Certo et. al., 2011). Fully reprogrammed I-OnuI HEs that bind and cleave the TGFβR2 target sequence (SEQ ID NO: 11) were cloned into mammalian expression plasmids and then individually transfected into a HEK 293T […] cell line that contained the TGFβR2 target sequence upstream of an out-of-frame gene encoding the fluorescent iRFP protein. Cleavage of the embedded target site by the HE and the accumulation of indels following DNA repair via the non-homologous end joining (NHEJ) pathway results in approximately one out of three repaired loci placing the fluorescent reporter gene back “in-frame”. The percentage of iRFP fluorescing HEK 293T cells is therefore used a readout of endonuclease activity at the chromosomally embedded target sequence. […] FIG. 3 (top graph).
A secondary I-OnuI variant library was next generated by performing random mutagenesis on the TGFβR2.B3 HE variant (e.g., SEQ ID NO: 6). Display-based flow sorting was performed under more stringent cleavage conditions in an effort to isolate variants with improved catalytic efficiency. […] FIG. 3 (bottom graph).

The target in data set [2] is T2, TGFβR2.B3.F8 I-OnuI HE variant (yeast surface display) (Artificial Sequence (parent Ophiostoma …)).
T2 chain: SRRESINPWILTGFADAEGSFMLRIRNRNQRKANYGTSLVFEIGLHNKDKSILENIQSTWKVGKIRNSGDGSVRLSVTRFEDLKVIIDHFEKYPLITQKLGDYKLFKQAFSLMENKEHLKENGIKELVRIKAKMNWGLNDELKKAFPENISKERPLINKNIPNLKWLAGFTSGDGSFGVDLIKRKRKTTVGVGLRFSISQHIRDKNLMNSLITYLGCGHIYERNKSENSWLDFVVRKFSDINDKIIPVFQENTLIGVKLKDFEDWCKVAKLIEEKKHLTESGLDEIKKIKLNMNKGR
The data set can be described thus: flow; sub-nanomolar affinity stated; yeast surface affinity titration, exact value only in figure. Conditions: tags: yeast surface display.

B1: TGFβR2 exon 6 I-OnuI HE variant target site (dsDNA)
DNA 1: CGACCAGAAATTCCCAGCTTCT
DNA 2: AGAAGCTGGGAATTTCTGGTCG
As a reminder, the Kd is a measure of binding affinity in units of concentration. B1: the activity in data set [1] is around 4 fold vs TGFβR2.B3. The Kd in data set [2] is below 1 nM.
